Numbering of substitutions follows the chain as printed.
T1: soluble Homo sapiens CD131 comprising a C-terminal 6xHis tag (human, UniProt P32927 17-438)
T1 construct: truncated after Ser438, C-terminal 6xHis; also called shCD131; shβc
T1 sequence: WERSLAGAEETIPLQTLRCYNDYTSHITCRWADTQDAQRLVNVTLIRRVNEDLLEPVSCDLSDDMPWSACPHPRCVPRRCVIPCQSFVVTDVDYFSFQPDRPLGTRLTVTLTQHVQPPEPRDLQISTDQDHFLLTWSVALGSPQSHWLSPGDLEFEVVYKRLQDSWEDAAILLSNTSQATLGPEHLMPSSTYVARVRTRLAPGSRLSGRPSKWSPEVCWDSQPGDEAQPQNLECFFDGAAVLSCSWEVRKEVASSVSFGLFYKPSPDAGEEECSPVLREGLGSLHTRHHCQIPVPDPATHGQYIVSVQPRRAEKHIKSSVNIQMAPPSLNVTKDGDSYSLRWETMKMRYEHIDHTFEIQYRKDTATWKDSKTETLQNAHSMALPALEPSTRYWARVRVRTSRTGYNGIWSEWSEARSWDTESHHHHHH

B1: 9A2-VR24.10 Fab (Fab, V domains shown)
VH: EVQLLESGGGLVQPGGSLRLSCAASGFTFPWYRVHWVRQAPGKGLEWVSSIHTGSQWTYYADSVKGRFTISRDNSKNTLYLQMNSLRAEDTAVYYCARFYDSFFDIWGQGTMVTVSS
VL: DIQMTQSPSSVSASVGDRVTITCRASQGISSWLAWYQQKPGKAPKLLIYAASSLQSGVPSRFSGSGSGTDFTLTISSLQPEDFATYYCQQANSFPITFGQGTRLEIKR
notes: recombinant Fab
B2: 9A2-VR24.111 Fab (Fab, V domains shown)
VH: EVQLLESGGGLVQPGGSLRLSCAASGFTFPWYRVHWVRQAPGKGLEWVSSIRSSGGFPMYNPHVKGRFTISRDNSKNTLYLQMNSLRAEDTAVYYCARFYDSFFDIWGQGTMVTVSS
VL: B1 VL
notes: recombinant Fab
B3: 9A2-VR24.30 Fab (Fab, V domains shown)
VH: B2 VH with M59Y, P62R, H63R
VL: B1 VL
notes: recombinant Fab
B4: 9A2-VR39.177 Fab (Fab, V domains shown)
VH: EVQLLESGGGLVQPGGSLRLSCAASGFTFSHYHMLWVRQAPGKGLEWVSSINGRGRVTYYALEYKKRFTISRDNSKNTLYLQMNSLRAEDTAVYYCARFYDSFFDIWGQGTMVTVSS
VL: B1 VL
notes: recombinant Fab
B5: 9A2-VR24.97 Fab (Fab, V domains shown)
VH: B2 VH with M59Y, N61S, P62L, H63S
VL: B1 VL
notes: recombinant Fab
B6: 9A2-VR39.93 Fab (Fab, V domains shown)
VH: B4 VH with A61N, L62P, E63A, Y64W
VL: B1 VL
notes: recombinant Fab
B7: 9A2-VR39.22 Fab (Fab, V domains shown)
VH: B4 VH with S30Q, H31W, M34V, L35I, L62D, E63S, Y64V, K66G
VL: B1 VL
notes: recombinant Fab
B8: 9A2-VR24.27 Fab (Fab, V domains shown)
VH: B2 VH with M59Y, N61H, P62Q, H63K
VL: B1 VL
notes: recombinant Fab
B9: 9A2-VR24.98 Fab (Fab, V domains shown)
VH: B2 VH with M59H, P62S, H63V
VL: B1 VL
notes: recombinant Fab
B10: 9A2-VR39.24 Fab (Fab, V domains shown)
VH: B4 VH with S30H, Y32F, M34V, L35I, L62D, E63S, Y64V, K66G
VL: B1 VL
notes: recombinant Fab
B11: 9A2-VR24.81 Fab (Fab, V domains shown)
VH: B1 VH with G54H, S55R, Q56N, W57Y
VL: B1 VL
notes: recombinant Fab
B12: 9A2-VR39.17 Fab (Fab, V domains shown)
VH: B4 VH with S30P, H31F, M34K, L35V, L62D, E63S, Y64V, K66G
VL: B1 VL
notes: recombinant Fab
B13: 9A2-VR24.44 Fab (Fab, V domains shown)
VH: B2 VH with M59Y, N61H, H63S
VL: B1 VL
notes: recombinant Fab
B14: 9A2-VR39.04 Fab (Fab, V domains shown)
VH: B4 VH with S30N, H31W, Y32F, H33Q, M34H, L35I, L62D, E63S, Y64V, K66G
VL: B1 VL
notes: recombinant Fab
B15: 9A2-VR24.102 Fab (Fab, V domains shown)
VH: B2 VH with M59F, P62S, H63S
VL: B1 VL
notes: recombinant Fab
B16: 9A2-VR24.56 Fab (Fab, V domains shown)
VH: B2 VH with P58T, M59Y, H63A, K65R
VL: B1 VL
notes: recombinant Fab
B17: 9A2-VR24.124 Fab (Fab, V domains shown)
VH: B2 VH with P58T, M59Y, N61T, H63S, K65R
VL: B1 VL
notes: recombinant Fab
B18: 9A2-VR39.01 Fab (Fab, V domains shown)
VH: B4 VH with S30F, H31W, Y32F, M34H, L35V, L62D, E63S, Y64V, K66G
VL: B1 VL
notes: recombinant Fab
B19: 9A2-VR24.55 Fab (Fab, V domains shown)
VH: B2 VH with P58T, M59Y, H63S, G66N
VL: B1 VL
notes: recombinant Fab
B20: 9A2-VR24.107 Fab (Fab, V domains shown)
VH: B2 VH with M59Y, H63F
VL: B1 VL
notes: recombinant Fab
B21: 9A2-VR24.122 Fab (Fab, V domains shown)
VH: B2 VH with P58T, M59Y, P62S, H63E
VL: B1 VL
notes: recombinant Fab
B22: 9A2-VR39.110 Fab (Fab, V domains shown)
VH: B4 VH with S30V, H31W, M34H, L35I, L62D, E63S, Y64V, K66G
VL: B1 VL
notes: recombinant Fab
B23: 9A2-VR24.57 Fab (Fab, V domains shown)
VH: B2 VH with P58T, M59Y, H63K, G66H
VL: B1 VL
notes: recombinant Fab
B24: 9A2-VR39.109 Fab (Fab, V domains shown)
VH: B4 VH with S30M, H31W, M34H, L35I, L62D, E63S, Y64V, K66G
VL: B1 VL
notes: recombinant Fab
B25: 9A2-VR24.84 Fab (Fab, V domains shown)
VH: B1 VH with G54H, S55R, Q56P
VL: B1 VL
notes: recombinant Fab
B26: 9A2-VR24.91 Fab (Fab, V domains shown)
VH: B1 VH with G54H, S55R, W57V
VL: B1 VL
notes: recombinant Fab
B27: 9A2-VR39.02 Fab (Fab, V domains shown)
VH: B4 VH with S30Y, H31W, L35I, L62D, E63S, Y64V, K66G
VL: B1 VL
notes: recombinant Fab
B28: 9A2-VR24.33 Fab (Fab, V domains shown)
VH: B2 VH with M59Y, P62H, H63K
VL: B1 VL
notes: recombinant Fab
B29: 9A2-VR24.110 Fab (Fab, V domains shown)
VH: B2 VH with M59Y, P62N
VL: B1 VL
notes: recombinant Fab

Biological target: T1, soluble Homo sapiens CD131 comprising a …
Assay: SPR, Fab over captured shCD131
Experimental: Binding kinetics were measured using SPR with a BIAcore™ A-100 instrument (GE Healthcare Life Sciences). An anti-C-terminal Hexa-His antibody (3H3) was immobilized on spots 1, 2, 4 and 5 of each flow cell of a CM-5 sensor chip (GE Healthcare Life Sciences) using amine-coupling chemistry (116). […] As shβc is a dimer, kinetics assays were performed with shβc captured on the sensor surface, and purified Fab injected as the analyte. Avidity effects were avoided by the use of Fab rather than whole IgG.
shCD131 was captured on spots 1 and 5 of each flow cell for 2 minutes at a concentration of 0.4 μg/ml. […] For some analysis purified Fab was injected over each flow cell for 3 minutes and dissociation was monitored for a further 10 minutes. Regeneration of the surface was performed after each cycle with a 40 second injection of 25 mM glycine, pH 2.0. The analysis was performed with Fabs at several concentrations between 100 and 0.31 nM, with each concentration analyzed twice and in random order. The analysis was performed at a flow rate of 30 μl/min in HBS-EP buffer (10 mM Hepes, 150 mM NaCl, 3 mM EDTA, 0.005% Tween 20, pH 7.4) at 37° C. Responses from spots 2 and 4 of each flow cell, (in which shβc was not captured, but otherwise treated identically), were subtracted from those of spots 1 and 5 respectively to produce reference subtracted data. Reference subtracted responses from a blank injection comprising buffer alone were subtracted from the resultant sensorgrams to produce double referenced data suitable for kinetic analysis. Double-referenced sensorgrams were fitted using non-linear regression to a model describing 1:1 kinetics, including a term for mass transport limitation. The Rₘₐₓ value was fitted locally to account for slight deviations in the level of sCD131 captured, with association rate (kₐ), dissociation rate (kd) and equilibrium dissociation constant (KD) fitted globally.

First: B1
Second: B2
The Kd of the first is 1.6-fold higher: 0.372 nM for the first, 0.236 nM for the second. The second binds more tightly here.

B3 and B4 are within 1.5-fold of each other in Kd: 0.122 nM for the first, 0.15 nM for the second.

B5 and B6 are within 1.5-fold of each other in Kd: 0.16 nM for the first, 0.171 nM for the second.

B7 and B8 are within 1.5-fold of each other in Kd: 0.141 nM for the first, 0.17 nM for the second.

B9 and B10 are within 1.5-fold of each other in Kd: 0.174 nM for the first, 0.169 nM for the second.

B11 and B12 are within 1.5-fold of each other in Kd: 0.173 nM for the first, 0.201 nM for the second.

Compared with B13, B14 is 2-fold higher in Kd: 0.163 nM for the first, 0.329 nM for the second.

First: B15
Second: B16
The Kd of the first is 1.9-fold lower: 0.188 nM for the first, 0.353 nM for the second.

Going from B17 to B18, the Kd falls from 0.25 nM to 0.102 nM (2.5-fold). The second binds more tightly here.

Going from B19 to B20, the Kd falls from 0.369 nM to 0.183 nM (2-fold). The second binds more tightly here.

First: B21
Second: B22
The Kd of the first is 3.2-fold higher: 0.353 nM for the first, 0.11 nM for the second. The second binds more tightly here.

Going from B23 to B24, the Kd falls from 0.211 nM to 0.098 nM (2.2-fold).

Going from B25 to B26, the Kd rises from 0.106 nM to 0.161 nM (1.5-fold).

Compared with B27, B28 is 1.7-fold higher in Kd: 0.0877 nM for the first, 0.149 nM for the second.

In the case of B29, the Kd is reported as 0.151 nM.

B1 and B2 are within 1.5-fold of each other in koff: 0.00055 s⁻¹ for the first, 0.000637 s⁻¹ for the second.

B3 and B4 are within 1.5-fold of each other in koff: 0.000464 s⁻¹ for the first, 0.000554 s⁻¹ for the second.

B5 and B6 are within 1.5-fold of each other in koff: 0.000524 s⁻¹ for the first, 0.00071 s⁻¹ for the second.

B7 and B8 are within 1.5-fold of each other in koff: 0.000441 s⁻¹ for the first, 0.000527 s⁻¹ for the second.

B9 and B10 are within 1.5-fold of each other in koff: 0.000559 s⁻¹ for the first, 0.0005 s⁻¹ for the second.

B11 and B12 are within 1.5-fold of each other in koff: 0.000492 s⁻¹ for the first, 0.000566 s⁻¹ for the second.

Going from B13 to B14, the koff rises from 0.000488 s⁻¹ to 0.00117 s⁻¹ (2.4-fold).

Compared with B15, B16 is 1.8-fold higher in koff: 0.000556 s⁻¹ for the first, 0.000997 s⁻¹ for the second.

Going from B17 to B18, the koff falls from 0.00076 s⁻¹ to 0.00031 s⁻¹ (2.5-fold).

First: B19
Second: B20
The koff of the first is 1.8-fold higher: 0.000942 s⁻¹ for the first, 0.00053 s⁻¹ for the second.

Going from B21 to B22, the koff falls from 0.000897 s⁻¹ to 0.00039 s⁻¹ (2.3-fold).

Compared with B23, B24 is 2.5-fold lower in koff: 0.000841 s⁻¹ for the first, 0.00033 s⁻¹ for the second.

B25 and B26 are within 1.5-fold of each other in koff: 0.000418 s⁻¹ for the first, 0.000448 s⁻¹ for the second.

B27 and B28 are within 1.5-fold of each other in koff: 0.000341 s⁻¹ for the first, 0.000472 s⁻¹ for the second.

B29 showed a koff of 0.000475 s⁻¹.

Going from B1 to B2, the kon rises from 1.48e+06 M⁻¹ s⁻¹ to 2.7e+06 M⁻¹ s⁻¹ (1.8-fold).

B3 and B4 are within 1.5-fold of each other in kon: 3.8e+06 M⁻¹ s⁻¹ for the first, 3.69e+06 M⁻¹ s⁻¹ for the second.

B5 and B6 are within 1.5-fold of each other in kon: 3.2e+06 M⁻¹ s⁻¹ for the first, 4.15e+06 M⁻¹ s⁻¹ for the second.

B7 and B8 are within 1.5-fold of each other in kon: 3.13e+06 M⁻¹ s⁻¹ for the first, 3.1e+06 M⁻¹ s⁻¹ for the second.

B9 and B10 are within 1.5-fold of each other in kon: 3.21e+06 M⁻¹ s⁻¹ for the first, 2.96e+06 M⁻¹ s⁻¹ for the second.

B11 and B12 are within 1.5-fold of each other in kon: 2.85e+06 M⁻¹ s⁻¹ for the first, 2.81e+06 M⁻¹ s⁻¹ for the second.

B13 and B14 are within 1.5-fold of each other in kon: 3e+06 M⁻¹ s⁻¹ for the first, 3.55e+06 M⁻¹ s⁻¹ for the second.

B15 and B16 are within 1.5-fold of each other in kon: 2.95e+06 M⁻¹ s⁻¹ for the first, 2.82e+06 M⁻¹ s⁻¹ for the second.

B17 and B18 are within 1.5-fold of each other in kon: 2.9e+06 M⁻¹ s⁻¹ for the first, 3.04e+06 M⁻¹ s⁻¹ for the second.

B19 and B20 are within 1.5-fold of each other in kon: 2.55e+06 M⁻¹ s⁻¹ for the first, 2.89e+06 M⁻¹ s⁻¹ for the second.

B21 and B22 are within 1.5-fold of each other in kon: 2.54e+06 M⁻¹ s⁻¹ for the first, 3.8e+06 M⁻¹ s⁻¹ for the second.

B23 and B24 are within 1.5-fold of each other in kon: 4e+06 M⁻¹ s⁻¹ for the first, 3.4e+06 M⁻¹ s⁻¹ for the second.

B25 and B26 are within 1.5-fold of each other in kon: 3.95e+06 M⁻¹ s⁻¹ for the first, 2.78e+06 M⁻¹ s⁻¹ for the second.

B27 and B28 are within 1.5-fold of each other in kon: 3.89e+06 M⁻¹ s⁻¹ for the first, 3.16e+06 M⁻¹ s⁻¹ for the second.

B29 was tested, and the kon was 3.15e+06 M⁻¹ s⁻¹.

From patent US20190062438A1 (CSL, published 2019)
